This is an account of results in patent US20020197616A1 (REGENTS OF THE UNIVERSITY OF MICHIGAN, published 2002).

The series concerns the molecule itself. The experiment in a line: method not described ('our observations'); self-association.

B1: Nod2 lacking the LRRs (1-744) (other)
chain: MGEEGGSASHDEEERASVLLGHSPGCEMCSQEAFQAQRSQLVELLVSGSLEGFESVLDWLLSWEVLSWEDYEGFHLLGQPLSHLARRLLDTVWNKGTWACQKLIAAAQEAQADSQSPKLHGCWDPHSLHPARDLQSHRPAIVRRLHSHVENMLDLAWERGFVSQYECDEIRLPIFTPSQRARRLLDLATVKANGLAAFLLQHVQELPVPLALPLEAATCKKYMAKLRTTVSAQSRFLSTYDGAETLCLEDIYTENVLEVWADVGMAGPPQKSPATLGLEELFSTPGHLNDDADTVLVVGEAGSGKSTLLQRLHLLWAAGQDFQEFLFVFPFSCRQLQCMAKPLSVRTLLFEHCCWPDVGQEDIFQLLLDHPDRVLLTFDGFDEFKFRFTDRERHCSPTDPTSVQTLLFNLLQGNLLKNARKVVTSRPAAVSAFLRKYIRTEFNLKGFSEQGIELYLRKRHHEPGVADRLIRLLQETSALHGLCHLPVFSWMVSKCHQELLLQEGGSPKTTTDMYLLILQHFLLHATPPDSASQGLGPSLLRGRLPTLLHLGRLALWGLGMCCYVFSAQQLQAAQVSPDDISLGFLVRAKGVVPGSTAPLEFLHITFQCFFAAFYLALSADVPPALLRHLFNCGRPGNSPMARLLPTMCIQASEGKDSSVAALLQKAEPHNLQITAAFLAGLLSREHWGLLAECQTSEKALLRRQACARWCLARSLRKHFHSIPPAAPGEAKSVHAMPGFIWLIR
notes: also called Nod2ΔLRR; Nod2 (1-744)
As to B1, the binding result was “binds”.
